Results as given in publication PMC9475542 (2022).

Biological target: DNMT1 (Homo sapiens, UniProt P26358)
Assay: ELISA

Sequence of DNMT1 (P26358 whole entry): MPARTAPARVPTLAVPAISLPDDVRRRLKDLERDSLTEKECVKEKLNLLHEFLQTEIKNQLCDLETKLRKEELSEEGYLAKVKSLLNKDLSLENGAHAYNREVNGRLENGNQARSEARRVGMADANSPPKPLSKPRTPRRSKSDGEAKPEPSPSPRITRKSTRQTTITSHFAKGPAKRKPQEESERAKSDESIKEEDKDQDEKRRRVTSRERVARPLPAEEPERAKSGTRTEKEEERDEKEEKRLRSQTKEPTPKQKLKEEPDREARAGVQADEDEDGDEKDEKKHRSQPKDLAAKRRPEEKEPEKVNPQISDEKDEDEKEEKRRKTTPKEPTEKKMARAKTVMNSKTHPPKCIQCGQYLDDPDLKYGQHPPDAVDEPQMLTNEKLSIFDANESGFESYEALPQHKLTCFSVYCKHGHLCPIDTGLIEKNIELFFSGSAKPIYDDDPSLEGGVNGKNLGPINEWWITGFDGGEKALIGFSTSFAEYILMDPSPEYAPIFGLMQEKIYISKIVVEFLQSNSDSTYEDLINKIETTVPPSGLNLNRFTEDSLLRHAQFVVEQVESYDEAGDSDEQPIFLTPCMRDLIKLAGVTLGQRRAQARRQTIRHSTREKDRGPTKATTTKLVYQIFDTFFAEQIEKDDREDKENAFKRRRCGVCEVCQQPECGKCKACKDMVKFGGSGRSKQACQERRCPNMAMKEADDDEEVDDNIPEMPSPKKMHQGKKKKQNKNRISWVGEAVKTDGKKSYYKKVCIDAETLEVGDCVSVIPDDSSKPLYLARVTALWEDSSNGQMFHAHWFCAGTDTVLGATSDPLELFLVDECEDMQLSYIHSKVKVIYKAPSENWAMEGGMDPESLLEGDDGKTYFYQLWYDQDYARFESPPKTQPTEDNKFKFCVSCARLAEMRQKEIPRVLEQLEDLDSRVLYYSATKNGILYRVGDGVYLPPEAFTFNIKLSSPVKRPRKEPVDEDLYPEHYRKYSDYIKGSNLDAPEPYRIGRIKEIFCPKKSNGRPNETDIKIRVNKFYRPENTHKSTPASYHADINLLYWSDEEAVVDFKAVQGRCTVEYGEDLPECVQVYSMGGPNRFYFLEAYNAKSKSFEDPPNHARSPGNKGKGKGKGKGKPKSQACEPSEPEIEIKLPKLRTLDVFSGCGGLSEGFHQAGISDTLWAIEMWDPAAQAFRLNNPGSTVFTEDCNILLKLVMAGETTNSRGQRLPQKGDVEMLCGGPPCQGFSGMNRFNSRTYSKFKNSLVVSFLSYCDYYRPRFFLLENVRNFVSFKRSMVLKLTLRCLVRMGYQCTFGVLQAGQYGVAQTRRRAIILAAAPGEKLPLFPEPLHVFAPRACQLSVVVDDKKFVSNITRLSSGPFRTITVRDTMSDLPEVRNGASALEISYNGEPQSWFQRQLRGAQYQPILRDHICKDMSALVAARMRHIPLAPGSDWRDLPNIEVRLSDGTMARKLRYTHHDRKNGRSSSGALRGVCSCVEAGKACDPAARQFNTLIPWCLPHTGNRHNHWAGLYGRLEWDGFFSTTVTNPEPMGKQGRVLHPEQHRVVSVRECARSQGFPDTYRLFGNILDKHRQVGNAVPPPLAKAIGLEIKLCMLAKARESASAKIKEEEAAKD

Kd: ~150 nM
B1: CD133 (protein)
chain: GGQPSSTDAPKAWNYELPATNYETQDSHKAGPIGILFELVHIFLYVVQPRDFPEDTLRKFLQKAYESKIDYDKPETVILGLKIVYYEAGIILCCVLGLLFIILMPLVGYFFCMCRCCNKCGGEMHQRQKENGPFLRKCFAISLLVICIIISIGIFYGFVANHQVRTRIKRSRKLADSNFKDLRTLLNETPEQIKYILAQYNTTKDKAFTDLNSINSVLGGGILDRLRPNIIPVLDEIKSMATAIKETKEALENMNSTLKSLHQQSTQLSSSLTSVKTSLRSSLNDPLCLVHPSSETCNSIRLSLSQLNSNPELRQLPPVDAELDNVNNVLRTDLDGLVQQGYQSLNDIPDRVQRQTTTVVAGIKRVLNSIGSDIDNVTQRLPIQDILSAFSVYVNNTESYIHRNLPTLEEYDSYWWLGGLVICSLLTLIVIFYYLGLLCGVCGYDRHATPTTRGCVSNTGGVFLMVGVGLSFLFCWILMIIVVLTFVFGANVEKLICEPYTSKELFRVLDTPYLLNEDWEYYLSGKLFNKSKMKLTFEQVYSDCKKNRGTYGTLHLQNSFNISEHLNINEHTGSISSELESLKVNLNIFLLGAAGRKNLQDFAACGIDRMNYDSYLAQTGKSPAGVNLLSFAYDLEAKANSLPPGNLRNSLKRDAQTIKTIHQQRVLPIEQSLSTLYQSVKILQRTGNGLLERVTRILASLDFAQNFITNNTSSVIIEETKKYGRTIIGYFEHYLQWIEFSISEKVASCKPVATALDTAVDVFLCSYIIDPLNLFWFGIGKATVFLLPALIFAVKLAKYYRRMDSEDVYDDVETIPMKNMENGNNGYHKDHVYGIHNPVMTSPSQH
